Test results reported in patent publication US20040233833A1, “Methods for identifying compounds with thrapeutic potential for treatment of central Neurodegenerative diseases resulting from abnormal protein or peptide accumulation” (priority 2001, published 2004).

Target: 20S proteasome (human red blood cell proteasomes) (human)
Test: cell-based or functional assay

Chain of REGγ (wild-type) (P61289 whole entry): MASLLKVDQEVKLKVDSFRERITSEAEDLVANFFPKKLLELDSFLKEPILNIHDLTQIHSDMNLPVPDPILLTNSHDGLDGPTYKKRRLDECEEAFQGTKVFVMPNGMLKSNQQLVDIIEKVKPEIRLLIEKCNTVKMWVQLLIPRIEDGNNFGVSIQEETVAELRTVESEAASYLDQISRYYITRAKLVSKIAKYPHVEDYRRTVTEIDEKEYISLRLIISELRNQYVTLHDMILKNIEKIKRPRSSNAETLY

Substance	half-life of the 49-residue peptide BBC1 with the proteasome [min]	rate of CT/PGPH labeling by 125I-YL3-VS, fold over proteasome alone [fold]	rate of T-subunit labeling by 125I-YL3-VS, fold over proteasome alone [fold]
REGγ (wild-type) (from UniProt P61289 1-254)	45	4.4	4.7
REGγ(K188E) (from UniProt P61289 1-254)	–	11.9	10.8

Target: 20S proteasome (human red blood cell proteasomes) (human)
Test: competition assay with REGα(N146Y)/REGβ(N135Y) as competitor for the proteasome

Substance	Relative affinity for proteasome (% of wild-type REGγ)
REGα (from UniProt Q06323 1-249)	0
REGγ (wild-type) (from UniProt P61289 1-254)	100
REGγ(K188A) (from UniProt P61289 1-254)	60
REGγ(K188C) (from UniProt P61289 1-254)	60
REGγ(K188D) (from UniProt P61289 1-254)	90
REGγ(K188E) (from UniProt P61289 1-254)	90
REGγ(K188F) (from UniProt P61289 1-254)	40
REGγ(K188H) (from UniProt P61289 1-254)	50
REGγ(K188I) (from UniProt P61289 1-254)	60
REGγ(K188N) (from UniProt P61289 1-254)	75
REGγ(K188P) (from UniProt P61289 1-254)	40
REGγ(K188Q) (from UniProt P61289 1-254)	75
REGγ(K188R) (from UniProt P61289 1-254)	75
REGγ(K188S) (from UniProt P61289 1-254)	50
